# Assay: soluble on expression in E. coli; label from the status in PepcDB or PDB records
row,Sequence,soluble on expression in E. coli
1,MGSDKIHHHHHHMRVELNGILPVCPCSGRGYLDNARLFRQIEPIVRKQSPFMNSRSLLCLLAVSLCASPVWADTVWMKNGDRLSGKIKVFDGGKLLLETPYGGSIALDWKQVQTLESDQEMLVKQDAYSGEKAKSLKAAEAGKVTLANGDSPKTVALASIEQIMKPKPLVEDFVWKGNVDVALDYKRAENDTDDYDVGFKTTARHGRWRHNAEGEYNRETKDDVTTTNNWSAEYALDRFITDKWFWQGRAEYKRDHIEDLARQRTVGTGPGYQFWDDELGAFSLGSLINRTDFEYRDGGKDNFYSAAVKWDYTRYLIGKNVQLFTNGEFAKPLGGVADYSLDAEVGLRYKVTEWASLNLKAEKDIITGTRESDLDKTRYTAGFGVTW,not soluble
2,MSLIHAGSMIDGVAKKIKTKQTIVIEDGVIIDVKSGYTKAKPNDIVIDLKNTTVTPGWMDLHVHLGSQSSPQSYSEDFYLNPEDFAYRSVPWIEKTLLAGFTTVRDVGGEVVLAARNAVNNGYINGPRIFSAGRSIGTTGGHADPSSGLNRKFRGDPGPHDAVVNGVDDAMKAVRQRYKDGSDLIKITATGGVLSVAKNGQNPQFTEEEIRAIVETAKDYEMHVAAHAHGVEGMQRAIRAGVRTIEHGTLMDRPTARLMKKYGTYYVPTVSAGEFVYEKAKEPGYFPEIVRPKALEIGPKIKKTLGMAYEEGVKIAFGTDMGVSPHGENADEFVYMVEAGMKPIDAIFAATSIAAEVLNQEDLGKIKKGMKADIVAVNGNPLKDIAVTKNVVFVMKDGVVYKQPINLKEGHHHHHH,soluble
3,MGSDKIHHHHHHMFEIKTDDFEGIEIVKLINTVSGEYASIIPSFGGNIHELVLQKHNILHDVIYTNKNKEELSGFYSNLYRGAKLNPFSNRIDKGSYIFENISYSIPLNDAGIHALHGFVWNKPFSITASKTSFEFATLTLSYTHPKDSADFPFSYTLLVTYKLCIEGLMVTTQITNTSPTAIPMGDGWHPYLTLGSSINTLKLQIPSVQKIETTDTLIPTGKIIEDISFFEPALLGERELDNAFVLDSSVEKAETLLFDEEEDLTLVVWQQTDTYPFVHVYTPSDRMSVAIEPCSAIPDAFNRNMIETTLKPAEKKSYVFGIQLR,not soluble
4,MGSDKIHHHHHHMKSVCLKITSLISLASRITTGLSLMSVMLASPLAVAQMGKHDALLLHAARVFDGHRMRTNTSVQVVNGKVTQIGPRGSFAPDNAKVIDLGDATILPGFIELHAHLSFQHVPADTVLKHGITTIRDVGGPVHKPYGGNGTLRMLTSGPIITAPGGYPIPLTGEKNIATPVSTEKEARETVRNLIDAGAVVIKIALEPGGEPGAPWSCGHAHVHHHNHAAAGNHAHHAQPNHEPPNHEAANDAHSSHPHPNTGLGTAWPLLAERVVKAIVDEAHVNKRRVTAHIAEVKGAEIAINAGIDEWAHVPCDIIPEPLLKKAVSQGVRIVTTLDTLSKCPGVAHNTRVWREQGGELLYGAEIAHPDVPRGIDAQELMYMMQMGNMETLEVLRAATSKAGEHLGLPLLGTLLPGAPADVIAIKGDPTHNLKNLEYPDLVISGGEIVLNNFPAAF,not soluble
5,MAHDWEKVLLSPDTPAESALRVLDDSGLRLVLVVDEQRRLLGTLTDGDVRRALLRHVNFMTAAVADIMHREPRVALASASREQLRHLMEQHSLLHIPLLDHDDRVVGLETYQEVLQRPRRDNWVFLMAGGFGKRLRPLTDNCPKPMLLVGGKPMLQTILEGFIAAGFHRFYISVHYLPETIKNYFGDGSKWGVTIVYIEEDQPLGTGGALGLLPGTDDLPIIMMNGDILTRLDFNALLDFHEKHAADLTLCVREYDVQIPFGVVEGNDVTVTSIVEKPKHRFFVNAGIYVVTPQAIARVLPSMRVDMPDLIKQIIADQRNVSMFPIREYWLDIGRPEDFDVAQTSIAQLEHHHHHH,not soluble
6,MGSDKIHHHHHHMTKLPATSDIYISFFMFTTNLQPDNLDYRRIVVAHIKKLQRFGYSGFEFPIAPGLPENYAQDLENYTNLRHYLDSEGLENVKISTNVGATRTFDPSSNYPEQRQEALEYLKSRVDITAALGGEIMMGPIVIPYGVFPTTDFNEPIWSDELQEHLKVRYANAQPILDKLGEYAEIKKVKLAIEPITHWETPGPNKLSQLIEFLKGVKSKQVGVVIDSAHEILDGEGPEIFKTQVEYLAQQGRLHYVQVSPPDRGALHTSWLPWKSFLTPIVKVYDGPIAVEIFNAIPAFTNSLRLTRRKFWIPDEDPPNQYPNAYDIADEAIKVTRKELKKIGSK,not soluble
7,MSLNELPRPDMMFGLKVVLAATDFSARSDRAVRRAAALARQSGARLVIAHVVDDDQPEHIVAVEVELAESALADAIREHTYLAGLQCTPLVLLGTPFDAIVRAAHQQGADLCVVGSHRRAFLRDIFAGTTAERVIRNSTVPVLMANLDPALPYAKSLAPVDLTDCSAQALETARQLGLLQRTKLIVMHVYDAAAAGMLNYAGVDKTSLDDYLVDTRTDAVRDLVRFLEPLRLDDVDYSTVVKEGAGPATDIIEAATELRPDLVVIGTHARRGAVRLLLSSVTEEVLRRLQRDILVVPVRDAGSEGHHHHHH,soluble
8,MPQINTVPGPHLRRQVWLRTKSGQRLAYAVSWWDASHVDEYLQNRSLPIWDSLSRLHTELYRDIQAIYCGHNRTLAKAFGQEGPFWGRHYLFWHDRKPLTLIYEIFSPYLSRYLGELPRPKFELEHHHHHH,not soluble
9,MGSPAHRPALLLLLPPLLLLLLLRVPPSRSFPGSGDSPLEDDEVGYSHPRYKDTPWCSPIKVKYGDVYCRAPQGGYYKTALGTRCDIRCQKGYELHGSSLLICQSNKRWSDKVICKQKRCPTLAMPANGGFKCVDGAYFNSRCEYYCSPGYTLKGERTVTCMDNKAWSGRPASCVDMEPPRIKCPSVKERIAEPNKLTVRVSWETPEGRDTADGILTDVILKGLPPGSNFPEGDHKIQYTVYDRAENKGTCKFRVKVRVKRCGKLNAPENGYMKCSSDGDNYGATCEFSCIGGYELQGSPARVCQSNLAWSGTEPTCAAMNVNVGVRTAAALLDQFYEKRRLLIVSTPTARNLLYRLQLGMLQQAQCGLDLRHITVVELVGVFPTLIGRIGAKIMPPALALQLRLLLRIPLYSFSMVLVDKHGMDKERYVSLVMPVALFNLIDTFPLRKEEMVLQAEMSQTCNT,soluble
10,QRKVSVAGAITTMDPAQLEVPATNIVNTLAGRVAGVIGVQSSGEPGKNISEFWVRGIGTFGANSGALVLIDGLEGSLSQIDAADVESFSVLKDAAATAVYGSRGANGVVLVTTKRGLES,not soluble
11,MKNLENYFDKAELQHFFECLTDDDNTPQASVFFRLAAFTGMRKSEMLCLEWSDIDFSNHTIRVNKTQSRGDGARLLVQAPKTARSNRTVYLDPTTIKILQHWQVDQKKWLLRFGFNINQGNHYVFANENNEMFQPSKPRKWLEHTLTKYDLKHVTVHAFRHTYATLAFEAHASIKSVQDQLGHSSYRTTLDIYTAVTAKQKNEATEKLANYLNFLEHHHHHH,not soluble
12,ISDLHPQLQPLAETFLRLCRDQGVDPLLICTWRSSEEQAQLYRRGRDLPGAIVTYARPGESAHNATLHGNPAARAFDVVPLLAGKPICDIDHPHWQVMGR,not soluble
13,MSLGTGSLGLTFHNFSFGDLFNPSAYHPLPHGDGQTLALQWQFGSNHYRTLSLSASDPWAFGTHTSLGFTAFKTKQTYDLTSSNLSTKTINQYGADITIGRRLTWPDDYFAISWRLGYLHTKGGFVSFLNETNAPEEAEEFSITQTISRNSIDNPIYPRHGSKNVFTAQLAGGVLPGTINFYKLIGKTSWFFPVSHNLVVNVAAQQGYLNTFSKDDYIPYTDYFYMGGSGMSSLPTIPLRGYPDHSLGQQFEGETDLYGGRVYSKFTTEVRYPLTLSSSASIYALAFAEAGNLWASASDFNLTDLKKSAGIGLRLYLPIIGQIGIDYGYGFDSVPSEPGKKPQGWNFTFSFGQPNEGHHHHHH,not soluble
14,MNTVADVMAGNDGEYCFHARTGKYGVYLKQDWRNEYNVGDIAVYEDSKPGTLNDFLIAPDEGDLKPDVVKRFEEMVAQAQQSAGAAAGNAQQTAQDVAAAATARDDAQRFAEKARQDATVTAEDRKATAEDVTSTGANAAAAGQSAQDAAGYARAAEQAKNDIDAALTGTLKTANHLSETAAAGEKAQQKSRDNLGLKSAATMEAQSDIYDRTKGRLAIPGAFGFGCAFLPEDVIRFDTKSDFLAWVRNALPGEYSVAGPYGIIIPDTRFEGVLSIRWTDARPETTEPRYRAKSLTFYGINGPIYHTRYCYWPISRLTGWVKINITTEDIIYRIVASSVRNRWGDPDIGGLIIAAYQGEADGDKVIRLVRGQSYRGSRLGPVGISVPGTPTGTYIVSPQFFITGCSEHSLPGSYCALSGVPDAHVSGAMPGLFIRTSRGMHRGN,not soluble
15,GREQMASFESAYVALSRMKQHVQVYTDNREGWIKAIKNSPEKATAHDILEPRNDRAVKTADLLFGRARPLDETAAGRAALQQSGLAQGSSPGKFISPGKKYPQPHVALPAFDKNGKAAGIWLSPLTDRDGRLEAIGGEGRIMGNEDARFVALQNSRNGESLLAGNMGEGVRMARDNPDTGVVVRLAGDDRPWNPGAMTGGRVWAEPAPVAPVPQAGADIILPPEVLAQRAAEEQQRREMEKKAEQTAREMAGEARKAG,not soluble
16,MSKNKNDYEHMLFYFAYKTFITTADEIIEQYGMSRQHHRFLFFINKLPGITIKELLITLEISKQGSHATLRKLKEEGLIVEQTSKQDRRVKKLFTTEAGDDLIGKLNQAQDELIQQTLQKVGHDWYAMMEELANYREGFKTIEHLKED,soluble
17,MHSITTALENLTRQLSQEIPATPGLCVFDAPFPLNDAFDALSWLASQSSFPQFYWQQRNGDEEAAVLGAITVFSSLDLAQRFLRQHAQPDLRIWGLNAFEPKEGYLLLPRLEWRRSGGTATLRLHLHSDVSLRDDARQAKAFLASLVGIKPVPALRLSLTSEQHWPDKDGWVKLIQQATHTIAQEAFDKVVLARATDLQFSRPVNAAAMMASSRRLNLNCYHFFMAFSADTAFLGSSPERLWRRRETALRTEALAGTVANHPDNHKAWQLGEWLMKDDKNQRENMLVVEDICQRLQNCTHSLDVLPPQVLRLRKVQHLRRCIWTALNQADDTLCLHQLQPTAAVAGIPREPARCFIEQHEPFEREWYAGSAGYLSTRQSEFCVTLRSAKVTANVVRLYAGAGIVRGSDPEQEWQEIDNKAAGLRTLLQMDA,not soluble
18,MRKIIVGSRKSKLALTQTNWFIDQLKALGLPYEFEVKEIVTKGDVILDVTLSKVGGKGLFVKEIEHALLTKEIDMAVHSMKDMPAVLPEGLMIGCTPKRVDPRDAFISKSGASYKELAEGAILGTSSLRRSAQLLAARPDLQVKWIRGNIDTRLRKLKEEDYDAIILATAGLQRMGWDNEVITEHLDETLCVPAVGQGALAIECREDDKDLLQLLAHINDAVTEKTVAAERVFLHKLEGGCQVPIAGYATITENDAIELTALVGSMDGSVLLKETVVGTDPEKVGLEAADRLIKQGAKELILAANKGQQ,not soluble
19,MTAENIVVVAVDGSEASQNAVRWAANTANKRGVPLRLAASYTMPQFLYAEGMVPPQELFDELQSETMDMIEAARVVAHEVAPDIKIGYVIAEGSPIDMLLDMSSDVTMIVMGSRGLGGLSGMVMGSVSAAVVSHADCPVVVVRSDNHVTETNKYGPVVVGVDGSDVSQRATEFAFEEAQARGAKLVAIHTWMDMQVQASLAGLAAAQQEWEIIEKEQTTLLKDRLQPLLERFPDVEVEMVITRDRPVRALEDCAHNAQLLVVGSHGRGGFRGMLLGSTSRALLQSAPCPMVVVRPNEKEN,not soluble

# — the DeepSol protein solubility set
